Assay results as given in PMC4446433, “Crystal structure of the Bloom's syndrome helicase indicates a role for the HRDC domain in conformational changes” (Nucleic Acids Research, 2015).

Biological target: T1, BLM^636–1072, including the RecA domains (human, UniProt P54132 636-1072)
T1 construct: also called RecA core; D1/D2 domains
Assay: BLI; biotinylated HRDC domain immobilised on streptavidin biosensors, RecA domains in solution, in the presence of ADP or ATP; 20-mM HEPES pH 7.5, 200-mM NaCl, 5% glycerol; 60-s windows; Octet RED384; apparent
Conditions: both partners purified

T1 sequence (P54132 636-1072): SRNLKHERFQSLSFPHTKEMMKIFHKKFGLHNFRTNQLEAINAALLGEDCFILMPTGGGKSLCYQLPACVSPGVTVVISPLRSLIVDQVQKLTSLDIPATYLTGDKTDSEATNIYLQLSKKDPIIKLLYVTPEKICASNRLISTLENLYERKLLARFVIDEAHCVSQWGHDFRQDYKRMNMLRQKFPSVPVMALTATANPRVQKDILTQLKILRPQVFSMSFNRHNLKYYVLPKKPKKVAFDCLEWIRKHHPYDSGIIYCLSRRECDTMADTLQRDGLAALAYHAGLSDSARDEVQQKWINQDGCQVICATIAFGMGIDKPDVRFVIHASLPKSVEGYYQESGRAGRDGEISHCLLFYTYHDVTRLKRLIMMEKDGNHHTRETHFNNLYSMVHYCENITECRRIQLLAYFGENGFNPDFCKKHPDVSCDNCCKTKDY

Kd: 30 to 100 µM
B1: BLM^1206–1298, encoding the HRDC domain (domain or fragment, human, UniProt P54132 1206-1298, looked up)
chain: AKVSQREEMVKKCLGELTEVCKSLGKVFGVHYFNIFNTVTLKKLAESLSSDPEVLLQIDGVTEDKLEKYGAEVISVLQKYSEWTSPAEDSSPG
modifications: biotin (on the C-terminal biotin acceptor sequence)
notes: The His10 tag is TEV-cleavable, but no cleavage is described; also called isolated HRDC domain; biotinylated HRDC domain; source: E. coli in TB medium with biotin, purified (Ni-IDA, S75 Superdex)
